The record followed here is patent US6660837.

Some results are limits rather than exact numbers.

Data set [1] has as its system [Ser^46] PKN (39-53) peptide.
Data set [2] deals with [γ-32P]GTP·GST-RhoA (human) (UniProt P61586). Description: cell-based or functional assay.
Sequence of [γ-32P]GTP·GST-RhoA (human) (P61586 whole entry): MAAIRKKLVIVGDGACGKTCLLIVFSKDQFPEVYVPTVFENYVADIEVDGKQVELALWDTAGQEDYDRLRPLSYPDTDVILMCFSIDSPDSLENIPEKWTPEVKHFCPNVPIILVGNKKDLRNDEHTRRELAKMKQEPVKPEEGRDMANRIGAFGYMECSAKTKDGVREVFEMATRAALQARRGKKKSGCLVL

In the case of PKN purified from rat testis cytosol, the “Km (phosphorylation of the peptide by PKN)” value in data set [1] is listed as “a Km of approximately 25 µM”.
In data set [2], “GST-PKN (N-terminal region of human PKN, amino acid sequence 1-538, fused to GST) (from UniProt Q16512 1-538)” returned a half life of GTP bound to RhoA (endogenous GTPase activity) of more than 15 min.
